Measured values: US20210356467

What was measured:
[1] = target: GSPT1 (P15170) expressed in-frame upstream to the N-CAT fragment (UniProt P15170)
[2] = target: IKZF1 (Q13422) expressed in-frame upstream to the N-CAT fragment (UniProt Q13422)
[3] = target: CK1a (P48729) expressed in-frame upstream to the N-CAT fragment (UniProt P48729)
Chain of CK1a (P48729) expressed in-frame upstream to the N-CAT fragment (P48729 other isoform, or with tags, fused parts or gaps): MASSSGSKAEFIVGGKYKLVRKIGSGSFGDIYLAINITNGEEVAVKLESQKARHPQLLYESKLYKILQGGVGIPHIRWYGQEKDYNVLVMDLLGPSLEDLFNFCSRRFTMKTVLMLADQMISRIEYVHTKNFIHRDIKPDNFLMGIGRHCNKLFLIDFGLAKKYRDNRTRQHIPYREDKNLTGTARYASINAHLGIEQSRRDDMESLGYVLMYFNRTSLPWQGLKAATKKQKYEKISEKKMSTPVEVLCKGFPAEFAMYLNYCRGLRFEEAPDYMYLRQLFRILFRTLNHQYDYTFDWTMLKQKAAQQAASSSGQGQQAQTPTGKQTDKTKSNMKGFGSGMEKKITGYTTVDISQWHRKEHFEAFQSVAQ

Chain of IKZF1 (Q13422) expressed in-frame upstream to the N-CAT fragment (Q13422 other isoform, or with tags, fused parts or gaps): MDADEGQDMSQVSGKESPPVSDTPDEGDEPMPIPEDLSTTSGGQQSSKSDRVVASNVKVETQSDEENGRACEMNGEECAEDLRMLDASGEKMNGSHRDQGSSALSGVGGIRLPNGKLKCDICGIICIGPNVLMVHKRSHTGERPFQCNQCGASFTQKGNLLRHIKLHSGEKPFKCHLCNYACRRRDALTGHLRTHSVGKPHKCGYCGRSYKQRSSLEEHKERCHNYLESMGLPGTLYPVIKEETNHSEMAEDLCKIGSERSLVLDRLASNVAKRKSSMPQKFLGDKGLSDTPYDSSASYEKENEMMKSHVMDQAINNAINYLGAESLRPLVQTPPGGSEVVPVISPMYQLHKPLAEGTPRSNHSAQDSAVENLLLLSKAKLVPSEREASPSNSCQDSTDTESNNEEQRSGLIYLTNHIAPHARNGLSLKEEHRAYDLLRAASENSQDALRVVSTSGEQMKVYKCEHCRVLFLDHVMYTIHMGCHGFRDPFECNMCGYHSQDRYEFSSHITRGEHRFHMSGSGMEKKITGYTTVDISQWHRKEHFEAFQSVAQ
Chain of Cereblon-E2 (Ubc4) fusion (chain, as listed by the source): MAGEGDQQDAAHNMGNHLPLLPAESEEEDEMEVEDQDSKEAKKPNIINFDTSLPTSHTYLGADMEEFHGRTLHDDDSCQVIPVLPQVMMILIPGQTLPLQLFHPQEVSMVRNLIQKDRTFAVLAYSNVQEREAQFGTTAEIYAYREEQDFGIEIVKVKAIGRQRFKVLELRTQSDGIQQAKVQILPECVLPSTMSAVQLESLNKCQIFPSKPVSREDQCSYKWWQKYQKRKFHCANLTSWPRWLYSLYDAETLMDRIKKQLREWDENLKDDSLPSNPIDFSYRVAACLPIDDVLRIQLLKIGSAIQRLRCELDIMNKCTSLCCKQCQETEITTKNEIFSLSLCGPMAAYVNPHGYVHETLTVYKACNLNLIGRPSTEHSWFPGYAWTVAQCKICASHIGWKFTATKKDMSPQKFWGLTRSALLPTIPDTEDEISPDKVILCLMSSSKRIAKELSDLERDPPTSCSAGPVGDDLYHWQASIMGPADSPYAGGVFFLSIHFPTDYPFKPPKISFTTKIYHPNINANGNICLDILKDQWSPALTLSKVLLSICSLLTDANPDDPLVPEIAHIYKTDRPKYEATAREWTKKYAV
Chain of GSPT1 (P15170) expressed in-frame upstream to the N-CAT fragment (P15170 other isoform, or with tags, fused parts or gaps): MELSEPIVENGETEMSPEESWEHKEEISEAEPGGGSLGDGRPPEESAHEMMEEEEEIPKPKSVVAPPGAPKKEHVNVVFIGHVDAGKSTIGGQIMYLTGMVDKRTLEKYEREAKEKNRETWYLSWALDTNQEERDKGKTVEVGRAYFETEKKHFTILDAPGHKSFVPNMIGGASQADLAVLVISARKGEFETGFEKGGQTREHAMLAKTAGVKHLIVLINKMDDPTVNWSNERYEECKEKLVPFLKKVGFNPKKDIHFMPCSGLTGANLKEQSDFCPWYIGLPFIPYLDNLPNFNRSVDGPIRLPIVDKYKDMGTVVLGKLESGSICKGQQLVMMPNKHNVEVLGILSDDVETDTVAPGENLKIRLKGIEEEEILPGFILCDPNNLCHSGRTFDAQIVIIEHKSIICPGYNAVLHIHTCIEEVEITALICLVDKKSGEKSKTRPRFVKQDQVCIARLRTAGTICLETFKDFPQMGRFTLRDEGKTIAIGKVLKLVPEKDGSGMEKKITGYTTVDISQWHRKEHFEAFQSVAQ

For Cereblon-E2 (Ubc4) fusion, the “growth of E. coli (OD600) under chloramphenicol, split-CAT ubiquitylation selection, with CC-885” value [1] was “CC-885 significantly promoted the growth of E. coli that express GSPT1”, the “dose response of E. coli growth (OD600) to TLD and LLD, split-CAT selection” value [2] was “the selection system maintains this well-known optimum characteristic response to TLD and LLD” and the “growth of E. coli (OD600) under chloramphenicol, split-CAT ubiquitylation selection, with Lenalidomide (LLD)” value [2] was “Thalidomide and Lenalidomide (TLD/LLD) significantly promoted the growth of E. coli that express IKZF1”. For the same substance, the “growth of E. coli (OD600) under chloramphenicol, split-CAT ubiquitylation selection, with Thalidomide (TLD)” value [2] was “Thalidomide and Lenalidomide (TLD/LLD) significantly promoted the growth of E. coli that express IKZF1”, the “growth of E. coli (OD600) under chloramphenicol, split-CAT ubiquitylation selection, with Lenalidomide (LLD)” value [3] was “Thalidomide and Lenalidomide (TLD/LLD) significantly promoted the growth of E. coli that express CK1a” and the “growth of E. coli (OD600) under chloramphenicol, split-CAT ubiquitylation selection, with Thalidomide (TLD)” value [3] was “Thalidomide and Lenalidomide (TLD/LLD) significantly promoted the growth of E. coli that express CK1a”.
